Legend:
[1] = tested on: humanized Pear1 mice; assay: Peritoneal adhesion model, determination of hydroxyproline in tissues; assay type: in vivo; details: versus control group
From the text: (§1) The model was made in humanized mice within 3 cm from the caecums of vermiform in peritoneal cavity, following the methods in the literature (Zhiliang Zhang, et al., Characteristics of genesis and development of peritoneal adhesion by different causes: experiment with rats, Chinese Journal of Medicine, 2005). The mice were divided into 3 groups. groups, with 20 mice in each group: A, control group with normal saline; B, prophylactic intraperitoneal injection of anti-human Pear1 monoclonal antibody (including LF2 or hLF105 antibody) 0.5 mg/kg, once a week; C, prophylactic intraperitoneal injection of anti-human Pear1 monoclonal antibody 1 mg/kg, once a week. After the mice were euthanized at 2 time points of 2 weeks and 4 weeks, an inverted “U”-shaped incision was selected to enter the abdomen, avoiding the original surgical incision. […] And the degree of adhesion in the peritoneal adhesion model was evaluated.
(§2) For fibroblast-specific Pear1 knockout mice, a peritoneal adhesion model was used to form a sham operation on the mice. The model preparation and animal grouping were as described above.
The formation of tissue adhesion depends on the synthesis of collagen and hydroxyproline is the precursor of collagen synthesis. […]

[2] = tested on: subcutaneous mucosal fibroblasts; assay: TGFβ activated mucosal fibroblasts treated with antibody: hydroxyproline in supernatant and QPCR of Col7a1, ACTA2; assay type: cell-based, humanized Pear1 mice; details: 1 μg/mL antibody, 10 ng/mL TGFβ, 48 hours; versus control group
Experimental: After the treatment of starvation in cultured mucosal or subcutaneous derived fibroblasts for 12 hours, 1 μg/mL anti-human Pear1 monoclonal antibody (including LF2 antibody or hLF105 antibody) was added separately to treat the cells. After 30 minutes, 10 ng/mL TGFβ was added to treat the cells for 48 hours, then the cell supernatant was collected. The content of hydroxyproline was detected using the hydroxyproline detection kit of Nanjing Jiancheng Biology Co., Ltd. according to the instructions.
Mucosal fibroblasts in Method 5 were collected. Total mRNA was extracted by Trizol method (Invitrogen, Carlsbad, CA) according to standard protocols. Complementary DNA was synthesized using reverse transcriptase (Takara). ABI7000 Real-time PCR instrument (Life Technologies) was used to detect gene expression and the PCR primer sequences are shown in Table 5. The 18sRNA gene was used as an internal reference.
To further investigate the role of targeting Pear1 in inhibiting mucosal fibroblast activation, subcutaneous mucosal fibroblasts were isolated from humanized Pear1 mice and cultured in vitro. TGFβ activated fibroblasts were treated with anti-human Pear1 monoclonal antibodies (including LF2 or hLF105) for 48 hours, and the supernatants were collected to detect the content of hydroxyproline. The cells were collected for QPCR to detect the expression levels of extracellular matrix proteins such as collagen 7a1 (Col 7a1) and smooth muscle actin a2 (ACTA2) to characterize fibroblast activation and collagen synthesis.

[3] = tested on: humanized Pear1 mice; assay: Peritoneal adhesion model, BhatiaDS score; assay type: in vivo; parameters: key to BhatiaDS score: grade 0: no adhesion; grade I: adhesive area of the area treated in the caecums of vermiform/total area of the treated area<50%, easy for blunt separation; grade II: above-mentioned area ratio≥50%, easy for blunt dissection; Grade III: Regardless of the size of the adhesive area, as long as the adhesion is difficult to separate, blunt separation can still be performed, but the intestinal wall is obviously damaged after separation; Grade IV: Regardless of the size of the adhesive area, as long as the adhesion is firm and can no longer be bluntly separated, required sharp separation
From the text: The model was made in humanized mice within 3 cm from the caecums of vermiform in peritoneal cavity, following the methods in the literature (Zhiliang Zhang, et al., Characteristics of genesis and development of peritoneal adhesion by different causes: experiment with rats, Chinese Journal of Medicine, 2005). The mice were divided into 3 groups. groups, with 20 mice in each group: A, control group with normal saline; B, prophylactic intraperitoneal injection of anti-human Pear1 monoclonal antibody (including LF2 or hLF105 antibody) 0.5 mg/kg, once a week; C, prophylactic intraperitoneal injection of anti-human Pear1 monoclonal antibody 1 mg/kg, once a week. After the mice were euthanized at 2 time points of 2 weeks and 4 weeks, an inverted “U”-shaped incision was selected to enter the abdomen, avoiding the original surgical incision. […] And the degree of adhesion in the peritoneal adhesion model was evaluated. […]
According to the scoring standard of BhatiaDS, grade 0: no adhesion; grade I: adhesive area of the area treated in the caecums of vermiform/total area of the treated area<50%, easy for blunt separation; grade II: above-mentioned area ratio≥50%, easy for blunt dissection; Grade III: Regardless of the size of the adhesive area, as long as the adhesion is difficult to separate, blunt separation can still be performed, but the intestinal wall is obviously damaged after separation; Grade IV: Regardless of the size of the adhesive area, as long as the adhesion is firm and can no longer be bluntly separated, required sharp separation. Each mouse was scored by 3 people respectively, and the average value was taken as the score of adhesion in this sample.

[4] = tested on: humanized Pear1 mice; assay: Subcutaneous mucosal adhesion model, HE and Masson staining at wounded site; assay type: in vivo; details: 5 micrograms at the wounded site every 7 days; 14th day; versus control group
From the text: Mice were anesthetized by intraperitoneal injection of pentobarbital sodium. The hair is depilated and sterilized, and the skin is excised. A thin layer of bonding agent was applied to one side of the silicone plate to fix the wound concentrically with a clamping board. Each clamping board was sutured at regular intervals with eight stitches to secure it to the intact tissue around the wound, preventing contraction of the wound edges. Sterile dressings were cut into circular shapes and attached to the silicone board for protecting the wound, preventing the animals from scratching or chewing. The anti-human Pear1 monoclonal antibody was […].
Mice were anesthetized using isoflurane, maintaining a flow of 2% isoflurane. The sterile dressings on the silicone board were peeled off (or not peeled off). Pictures were taken at the wounded sites next to the fixed position and scale bar. If necessary, sterile dressings can be reapplied. Image J was used to process the photos. The wounded area can be calculated according to the circled area by the scale.
[…] were fixed in 4% paraformaldehyde for 48 hours, after paraffin embedding, a semi-automatic rotary slicing machine (Leica; rm2235 and cm1950) was used for slicing, dewaxing is carried out at room temperature, gradient ethanol is used for rehydration, HE and Masson staining were then performed.
Subsequently, in order to detect the role of targeting Pear1 in inhibiting adhesion formation in vivo, the inventors constructed an adhesion model in humanized Pear1 mice, and at the same time instilled anti-human Pear1 monoclonal antibodies (including LF2 or hLF105) each at a dose of 5 micrograms at the wounded site, with once administration every 7 days. On the 14th day, the subcutaneous mucosal tissue at the wounded site was removed, stained with HE and Masson, and photographed under a microscope. The thickness of the subcutaneous mucosa and skin and the area of collagen were counted by Image J software for indicating the formation of adhesions.

[5] = tested on: humanized Pear1 mice; assay: Peritoneal adhesion model, indicators related to adhesion (immunohistochemistry or RT-PCR); assay type: in vivo; details: versus control group
From the text: as §1, §2
Immunohistochemistry or RT-PCR was used to measure some indicators related to adhesion formation to reflect the severity of adhesion, such as: fibrinogen (FIB), α-smooth actin (α-SMA), MMPs/TIMPs, transforming growth factor (TGF-β1), vascular endothelial growth factor (VEGF).

B1: hLF105: humanized anti-human Pear1 antibody; VH SEQ ID NO: 8, VL SEQ ID NO: 22 (antibody, V domains shown)
VH: QVQLVQSGAEVKKPGASVKVSCKASGYTFTGYPMNWVRQAPGKRLEWMGVINPYNGGTSYNQKFKGRATLTVDTSASTAYMELSSLRSEDTAVYYCARGGVRPFAYWGQGTLVTVSS
VL: DIQMTQSPSSLSASVGDRVTITCKASEDIYNRLAWYQQKPGKAPKLLISGATSLETGVPSRFSGSGSGNDFTLTISSLQPEDFATYYCQQYWSTPTFGQGTKLEIK
[1]
  hydroxyproline content in tissues: significantly lower
[2]
  ability to synthesize extracellular matrix: inhibited
  activation of fibroblasts: inhibited
[3]; 0.5 mg/kg intraperitoneal once a week, 2 weeks (n = 8)
  BhatiaDS score: II (grade II: above-mentioned area ratio≥50%, easy for blunt dissection)
[3]; 0.5 mg/kg intraperitoneal once a week, 4 weeks (n = 8)
  BhatiaDS score: I (grade I: adhesive area of the area treated in the caecums of vermiform/total area of the treated area<50%, easy for blunt separation)
[3]; 1.0 mg/kg intraperitoneal once a week, 2 weeks (n = 8)
  BhatiaDS score: III
[3]; 1.0 mg/kg intraperitoneal once a week, 4 weeks (n = 8)
  BhatiaDS score: II (grade II: above-mentioned area ratio≥50%, easy for blunt dissection)
[3]; versus control group, especially in the high-dose group (1.0 mg/kg)
  BhatiaDS score compared with the control group: significantly lower
[4]
  collagen deposition in the subcutaneous mucosa at wounded sites (Masson staining): less collagen deposition
  dermal thickness at wounded sites (HE staining): smaller dermal thickness
  fibroblasts at wounded sites (HE staining): fewer fibroblasts
[5]
  indicators related to adhesion (FIB, α-SMA, MMPs/TIMPs, TGF-β1, VEGF): significantly lower

Source: US20240327510A1, “DRUG FOR PREVENTING, ALLEVIATING OR TREATING MUCOSAL ADHESION AND USE THEREOF” (SHANGHAI SYNVIDA BIOTECHNOLOGY CO. LTD., priority 2021, published 2024)
